This passage reports protein stability index results from the supplement of paper PMC10567573.

The data set is described as follows: protein stability index of a GFP-peptide fusion (GPS, HEK-293T) (PSI 1-6); higher = more stable.
Where [1] appears, read: treatment: DMSO, c terminus: a fixed tail appended.
Where [2] appears, read: treatment: MLN4924 1 uM, 8 h, c terminus: a fixed tail appended.
Where [3] appears, read: treatment: DMSO, c terminus: native.
Where [4] appears, read: treatment: MLN4924 1 uM, 8 h, c terminus: native.

± gives the standard deviation.
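Further: 24-mer peptide tiles fused after GFP, lentivirally expressed, FACS-sorted into six equal bins by GFP/DsRed ratio, decoded by Illumina sequencing, PSI is the read-weighted mean bin number.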

For the sequence TPEPDTCHELLGHVPLLAEPSFAQ [TPH1], the protein stability index reads like this: under setting [1], 3.96 ± 0.27; under setting [2], 3.91 ± 0.2.
For the sequence TPETRAKFTQDNLCRAQRERLASA [TEKT4], the protein stability index under setting [1] stood at 4.17 ± 0.23 and the protein stability index under setting [2] stood at 4.35 ± 0.35.
In the case of TPGGRGDMKYGIYAVENEHMNRLQ [VTI1B], the protein stability index by setting is: under setting [1], 3.69 ± 0.33; under setting [2], 3.55 ± 0.63.
TPLQSRTSIVQAAAGGVPGGGSNN [PDLIM7]: the protein stability index by setting is: under setting [1], 4.71 ± 0.2; under setting [2], 5.03 ± 0.24.
TQHNFQEVMESEEFMLLPANQLID [KLHL20]: the protein stability index by setting is: under setting [1], 4.43 ± 0.18; under setting [2], 4.66 ± 0.24.
On to TQIRTITEEIRDGKVISSREHVQS [KRT36], for which the protein stability index stood at 4.75 ± 0.088 under setting [1] and 4.86 ± 0.1 under setting [2].
Regarding TQQNRKLTDFYPVRRSSRKSKAEL [KMT5A], the protein stability index by setting is: under setting [1], 2.97 ± 0.89; under setting [2], 3.76 ± 0.29.
As to TQSLPTASASKFPSSGPVTPQPTA [AUP1], the protein stability index is 4.85 ± 0.22 under setting [1] and 4.78 ± 0.16 under setting [2].
As to TRILKHSPESSRGQCGENLAWASY [GLIPR2], the protein stability index runs as follows: under setting [1], 2.38 ± 0.44; under setting [2], 2.38 ± 0.18.
For TSCSLELIGDLIGHSSSVEMFLYF [WDR41], the protein stability index runs as follows: under setting [1], 3.13 ± 0.88; under setting [2], 2.4 ± 0.74.
TSETSHSPLYADPYTPPATSHRRV [PLEKHN1]: the protein stability index amounted to 4.39 ± 0.12 under setting [1] and 4.34 ± 0.08 under setting [2].
Take TSGGSNIIYVASNHFVWRLIPVPM [VPS39]: the protein stability index turned out to be 2.44 ± 0.36 under setting [1] and 2.51 ± 0.74 under setting [2].
With TSVLATLVVFAVLGFKANIMNEKC [SLC6A17], the protein stability index under setting [1] stood at 2.66 ± 0.12 and the protein stability index under setting [2] was 3.31 ± 0.11.
As for TTEQHVPEVEVQVKRRRTASLSNQ [SNURF], the protein stability index under setting [1] was found to be 5.25 ± 0.27 and the protein stability index under setting [2] stood at 5.23 ± 0.17.
On to TTSDIPHMLNQVESKVKDILSKVQ [FAM98B], for which the protein stability index reads like this: under setting [1], 2.48 ± 0.38; under setting [2], 2.32 ± 0.32.
For TTVPDGPTQLRALNLTEGFAVLHW [TNXB], in that order: 2.18 ± 0.098 and 2.05 ± 0.065.
TVETCRALGKLLPRETLCTELVLS [LRRC45]: the protein stability index runs as follows: under setting [1], 2.67 ± 0.25; under setting [2], 2.55 ± 0.13.
Consider TVLENEDDMLLFDEQEKGIVTKFY [FAN1], for which the protein stability index reads like this: under setting [1], 3.65 ± 0.12; under setting [2], 3.72 ± 0.26.
Regarding TVMILPVTHTEISPEQQFDRSVQR [TMEM175], the protein stability index runs as follows: under setting [1], 3.64 ± 0.28; under setting [2], 3.76 ± 0.16.
Turning to TVSIMEPGETRRNSYPRADTGLFS [TRIM29], the protein stability index runs as follows: under setting [1], 3.81 ± 0.2; under setting [2], 3.64 ± 0.37.
Regarding TWDGRPLTMAATFDDCLYALCVVD [GFOD1], the protein stability index under setting [1] turned out to be 2.38 ± 0.46 and the protein stability index under setting [2] amounted to 2.35 ± 0.61.
In the case of TWKVLFCSMSATFTLNFFRSGIQF [CLCN6], the protein stability index under setting [1] stood at 3.25 ± 0.11 and the protein stability index under setting [2] worked out at 3.2 ± 0.73.
Consider TWRLPDVSEAGGSGRLSASWEPLS [FCHO1], for which the protein stability index was determined as 3.38 ± 0.13 under setting [1] and 3.24 ± 0.26 under setting [2].
As to TWWIMFLSTFSVPYFLFQHWATGY [SOAT1], the protein stability index is, setting by setting: under setting [1], 3.18 ± 0.29; under setting [2], 2.77 ± 0.51.
Consider TYECRCIGEEKEMWNFGEKYARF [TIA1], for which the protein stability index came out at 2.58 ± 0.59 under setting [3] and 2.93 ± 0.65 under setting [4].
Consider TYGRRAKGHNTPKDIAHFWELGGG [DYNC2LI1], for which the protein stability index under setting [1] stood at 2.84 ± 0.11 and the protein stability index under setting [2] stood at 3.07 ± 0.18.
TYKRFEGLTQRGSIPTYMKAGKL [STK38L]: the protein stability index turned out to be 2.26 ± 0.18 under setting [3] and 2.41 ± 0.19 under setting [4].
TYSLVPKKKTKVLKQRTVIEMFKS [EHMT1]: the protein stability index reads like this: under setting [1], 2.41 ± 0.21; under setting [2], 2.58 ± 0.34.
For VASGYHYGVASCEACKAFFKRTIQ [ESRRA], in that order: 2.29 ± 0.27 and 2.47 ± 0.48.
VCEQCLQILYESCPKYKFISCPTC [RNF208]: the protein stability index runs as follows: under setting [1], 4.06 ± 0.29; under setting [2], 4.09 ± 0.5.
VCRARPRACSHLIRLMQRCWQGDP [RIPK4]: the protein stability index was determined as 2.21 ± 1.1 under setting [1] and 2.86 ± 0.35 under setting [2].
Regarding VCSILLGTSTLLVWVGVIRYLTFF [MCOLN1], the protein stability index under setting [1] was found to be 3.3 ± 0.42 and the protein stability index under setting [2] was found to be 3.02 ± 0.079.
On to VDGRHLLRTLSRAKFWPRRRFNFF [DNAAF3], for which the protein stability index turned out to be 1.92 ± 0.23 under setting [1] and 2.17 ± 0.11 under setting [2].
For VDHHGTAQLQALRQKEVDFCISLL [INTS3], in that order: 2.23 ± 0.2 and 2.35 ± 0.45.
In the case of VDKYVNSFVLKNFPALLSTGEFLK [KLHL13], the protein stability index reads like this: under setting [1], 2.01 ± 0.45; under setting [2], 2.1 ± 0.6.
As for VDQTGVSGGVASFICQATGDPRPK [PTPRD], the protein stability index is, setting by setting: under setting [1], 4.62 ± 0.17; under setting [2], 4.81 ± 0.2.
Sequence VDQYLALPDVSLGRYAYVRGGGDP [MCOLN1] returned a protein stability index under setting [1] of 3.19 ± 0.26 and a protein stability index under setting [2] of 3.03 ± 0.4.
For VDSFETQRNGLVFIYDMCGSNYAN [PTPN9], in that order: 2.23 ± 0.24 and 2.05 ± 0.28.
As to VEESEASSSVSISHSASATGNVCI [LMNB1], the protein stability index came to 4.84 ± 0.11 under setting [1] and 4.71 ± 0.12 under setting [2].
VELLHNTSYTRQACLVSCFQQLMV [SCNN1D]: the protein stability index is, setting by setting: under setting [1], 2.39 ± 0.78; under setting [2], 2.5 ± 0.94.
Take VENELMISYLMFLQILVYFSFMSW [FAM98B]: the protein stability index runs as follows: under setting [1], 2.94 ± 0.45; under setting [2], 3.14 ± 0.05.
Take VFFAYAQLGYLLFGTQVENFSTFI [PKD2L1]: the protein stability index was found to be 3.33 ± 0.054 under setting [1] and 2.71 ± 0.72 under setting [2].
For VGEVPYWVLEPVLEGWRPDQLYRR [ELOA2], in that order: 1.97 ± 0.33 and 2.32 ± 0.33.
Regarding VGGEAVEVEEVENVQTEFPGEDEN [TRIM55], the protein stability index was 5.74 ± 0.2 under setting [1] and 5.61 ± 0.34 under setting [2].
For VGRTVLDMLIREVVEKRLCMYEHG [RSPH3], in that order: 2.89 ± 0.52 and 3.39 ± 0.14.
For VGSDPLIKSDEECRDLVDEAKNYL [KLHL20], in that order: 5.2 ± 0.11 and 5.09 ± 0.28.
For VGVAGLISPWNLPLYLLTWKIAPA [ALDH8A1], in that order: 2.92 ± 0.97 and 2.88 ± 0.95.
Under setting [1], VIRKNIVKKCLELFSELAEDKENY [HSP90AB1] returned a protein stability index of 2.33 ± 0.046.
On to VISLEKLNVGNERYVFEAVIRWIA [GAN], for which the protein stability index came out at 2.38 ± 0.38 under setting [1] and 2.09 ± 0.29 under setting [2].
As to VKMDQKSKHLKEMYQELMEMCHKP [TRIM43], the protein stability index under setting [1] worked out at 3.03 ± 0.15 and the protein stability index under setting [2] was determined as 3.13 ± 0.28.
On to VKSVSPQGNSVDRMAAPRAEALFD [NCF4], for which the protein stability index runs as follows: under setting [1], 4.35 ± 0.14; under setting [2], 4.71 ± 0.14.
As to VLENLEDSCVLTGPDDSLWDKHAC [TRIB3], the protein stability index turned out to be 3.69 ± 0.16 under setting [1] and 3.87 ± 0.26 under setting [2].
As to VLGVADGVGGWRDYGVDPSQFSGT [PPTC7], the protein stability index reads like this: under setting [1], 3.51 ± 0.24; under setting [2], 4 ± 0.088.
For the sequence VLICVIVFIIILFIVLFATGAFS [VAMP8], the protein stability index came to 4.42 ± 0.23 under setting [3] and 4.34 ± 0.15 under setting [4].
Turning to VLRAGDREDITEPAICALRHLTSR [CTNNB1], the protein stability index is, setting by setting: under setting [1], 3.39 ± 0.39; under setting [2], 3.67 ± 0.18.
Consider VLSCEAATQTERRLDLAAVTLRRG [FAM189A2], for which the protein stability index reads like this: under setting [1], 4.25 ± 0.19; under setting [2], 4.28 ± 0.34.
For VLVHVQKWDGKSTTIKRKREDDKL [FABP4], the protein stability index runs as follows: under setting [1], 2.85 ± 0.46; under setting [2], 2.85 ± 0.4.
Turning to VLVLIFNAAKTCPTMPALFSDHTF [INTS4], the protein stability index runs as follows: under setting [1], 3.16 ± 0.42; under setting [2], 3.16 ± 0.48.
On to VMDYLPISSTSTKRTYWPDLDAKI [PLD5], for which the protein stability index reads like this: under setting [1], 2.77 ± 0.19; under setting [2], 2.85 ± 0.1.
VMSGVKCSGTELSLAHCRHDGEDV [LOXL2] yielded a protein stability index under setting [1] of 4.95 ± 0.21 and a protein stability index under setting [2] of 4.89 ± 0.24.
VNKYYPPDFNPEKHGSLNRYHNSH [YJU2B]: the protein stability index is, setting by setting: under setting [1], 3.41 ± 0.21; under setting [2], 3.21 ± 0.39.
For the sequence VNYSDPNDADKAINTLNGLKLQTK [ELAVL3], the protein stability index was 4.66 ± 0.2 under setting [1] and 4.62 ± 0.12 under setting [2].
Regarding VPVQPLLPESLARSLLPSTEYQKQ [FBF1], the protein stability index is, setting by setting: under setting [1], 4.18 ± 0.18; under setting [2], 4.58 ± 0.28.
For the sequence VQTWTQPRLCYLVKEGGSYGFSLK [PDZK1], the protein stability index by setting is: under setting [1], 2.13 ± 0.24; under setting [2], 2 ± 0.33.
Consider VQVSPEFKDSAGKSPTGLKLKNDT [ZNF75A], for which the protein stability index is 4.96 ± 0.23 under setting [1] and 4.91 ± 0.15 under setting [2].
In the case of VRTLSEPPDKGEEQVNFCESSNDF [ZBTB22], the protein stability index is 5.14 ± 0.25 under setting [1] and 5.26 ± 0.39 under setting [2].
With VRVLESLLVSLVTTVVVFVASMVL [CLCN6], the protein stability index is, setting by setting: under setting [1], 3.13 ± 0.4; under setting [2], 3.3 ± 0.34.
VSQAVEGPEELSRSSSESKLPSSG [RIPK4] registered a protein stability index under setting [1] of 5.21 ± 0.62 and a protein stability index under setting [2] of 5.06 ± 0.58.
Consider VSRRAAAAAATVLLRTARVRRECW [SLC19A2], for which the protein stability index amounted to 2.58 ± 0.17 under setting [1] and 2.99 ± 0.36 under setting [2].
The sequence VSSAVSPSIIPQEDPSQQFLQQSL [INTS4] yielded a protein stability index under setting [1] of 4.2 ± 0.24 and a protein stability index under setting [2] of 4.41 ± 0.083.
Take VTGREGFPTDAPYPTTLGKDRECQ [ZNF8]: the protein stability index was 4.74 ± 0.13 under setting [1] and 4.8 ± 0.32 under setting [2].
In the case of VTGYGINGTGDSNDFWRIEVVNRK [POMT2], the protein stability index was determined as 3.29 ± 0.21 under setting [1] and 3.39 ± 0.17 under setting [2].
